Target: T1, recombinant P. falciparum 3D7 MSP1 (p19 fragment) (Plasmodium falciparum (3D7))
T1 construct: merozoite surface protein 1 of P. falciparum 3D7, the 19 kDa C-terminal fragment (MSP1-19, p19); Coated on ELISA plates and used in solution in the BLI without avidity; The ELISA methods say only 'recombinant P. falciparum MSP1'; also called MSP1-19; merozoite surface protein 1 (the 1-19 fragment)
T1 chain: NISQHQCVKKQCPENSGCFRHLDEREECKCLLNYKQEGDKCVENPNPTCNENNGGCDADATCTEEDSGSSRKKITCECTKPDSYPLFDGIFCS
Assay: ELISA; plates coated with recombinant MSP1, AMA1 or OVA (each 5 µg/ml in PBS); purified recombinant antibodies at a maximum of 5-50 nM with 10-fold serial dilutions, 2 h room temperature or overnight 4°C; HRP anti-human IgG1
Details: both partners purified

B1: MaliM03 m-IgG (antibody, V domains shown)
VH: QVQLQQWGAGLLKPSETLSLTCAVYGGSFSGYYWTWIRQPPGKGLEWIGEINNSGKTNYNPSLKSRVSISIDTSKNQFSLKVTSVTAADTAVYYCARGPQQHLEPPFDYWGHGTLVTVSS
VL: QSVLTQPPSASGTPGQRVTISCSGSNSNIATNYVCWYQQYPGTAPKPLIYRTDQRPSGVPDRFSGSKSGTSASLAISGLRSEDEADYYCATWDDSLSAWVFGGGTKLTVL
notes: VH of MaliM03, as the VH of m1; immunoglobulin gamma-1 heavy chain constant region (vector AbVec-hIgG1) with L309C; human IgM tail piece, 18 amino acids, added to the IgG constant region; as the light chain of m1; Self-assembles into multimers (negative-stain EM); also called multimeric IgG; modified IgG antibody; source: 293T cells, transient transfection, purified from supernatant (HiTrap …)
  fold better binding than its monomeric form: ~10 fold
